{"source": "paper PMC3602377", "about": "“Steady-State NTPase Activity of Dengue Virus NS3: Number of Catalytic Sites, Nucleotide Specificity and Activation by ssRNA”", "molecular_target": "NS3h (NS3 helicase domain) (Dengue virus serotype 2 (cDNA of …, UniProt O09234 1646-2093))", "experiment": "fluorescence intensity titration (ex 495 nm, em 525-570 nm), 1:1 single-site fit; 1.5 mM free Mg2+; no ATP stated; constant printed as 'K' in nM, subscript lost, read as Kd", "settings": "protein: recombinant; tags: N-terminal His6 (pET-28a); label: 5'-fluorescein", "data": [{"binder": "AGUUGAGUUG (ssRNA)", "note": "[fluorescein-labeled 10-nt ssRNA]", "values": [{"measurement": "Kd", "value": "0.75 ± 0.08", "unit": "nM"}]}]}
